The text below walks through data of US20210403583A1 (ELIXIRON IMMUNOTHERAPEUTICS HONG KONG, published 2021).

Positions count from the first letter of the chain named. Read-outs that look alike come from different tables or passages of the source.

Assay [1] concerns the target T1, recombinant human CSF1R-His (Biolegend) (human, UniProt P07333 20-512, limits assumed).
T1 construct: Bought protein; also called CSF1R-His (monomer); hu-CSF1R; not shown: His tag
Put plainly: ELISA, coated human CSF1R-His (monomer). How it is done: (§1) Materials and methods: Recombinant human CSF1R-His (Biolegend), or CSF1R-Fc fusion protein were immobilized on 96 well microtiter plate at a concentration of 1 μg/mL in Coating Solution (SeraCare) overnight at 4° C. The wells were washed with wash solution (0.05% Tween20 in imidazole-buffered saline) and blocked with 1% BSA. Hybridoma culture supernatants or serial dilutions of antibodies were added to wells. After incubation at 37° C. for 1 h, the wells were washed with wash solution. Peroxidase-conjugated goat anti-human kappa light chain antibody (Bethyl) was applied to each well at 37° C. for 1 h incubation. After washing, the wells were developed with TMB substrate for 5-10 min at RT and then stopped with 1 N HCl. Thereafter absorbance was measured at 450 nm and 650 nm. The EC₅₀ values were calculated through GraphPad Prism7.
For orientation: An ELISA detects its analyte on a solid surface through an enzyme-linked reagent.

The target of assay [2] is T2, recombinant human CSF1R-Fc fusion protein (human, UniProt P07333 20-512).
T2 construct: probably the same protein; also called CSF1R-Fc (dimer); not shown: Fc part
T2 sequence (P07333 20-512 limits assumed): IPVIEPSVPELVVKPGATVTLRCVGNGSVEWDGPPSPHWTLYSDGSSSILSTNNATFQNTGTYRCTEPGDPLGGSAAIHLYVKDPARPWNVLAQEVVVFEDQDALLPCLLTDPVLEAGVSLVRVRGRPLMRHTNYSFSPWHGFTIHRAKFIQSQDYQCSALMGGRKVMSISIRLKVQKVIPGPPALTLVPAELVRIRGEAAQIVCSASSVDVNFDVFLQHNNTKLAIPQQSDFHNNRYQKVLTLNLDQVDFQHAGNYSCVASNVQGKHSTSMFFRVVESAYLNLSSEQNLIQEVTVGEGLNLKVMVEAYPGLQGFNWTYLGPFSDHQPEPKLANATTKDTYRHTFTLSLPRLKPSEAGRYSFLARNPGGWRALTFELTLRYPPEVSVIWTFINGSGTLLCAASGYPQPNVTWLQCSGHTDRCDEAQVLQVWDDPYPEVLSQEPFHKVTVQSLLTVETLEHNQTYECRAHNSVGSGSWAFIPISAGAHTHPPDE
Put plainly: competition ELISA, coated human CSF1R-Fc, competitor biotinylated CSF1-His 2.5 ug/mL. The procedure: Materials and methods: Recombinant human CSF1R-Fc fusion protein was immobilized on 96 well microtiter plate at a concentration of 1 μg/mL in Coating Solution (SeraCare) overnight at 4° C. The wells were washed with wash solution and blocked with 1% BSA at RT. Serial dilutions of the antibodies were added to wells. Then 2.5 ug/mL biotinylated CSF1-His (Biolegend) was added and incubated for 1 h at 37° C. After washing, Streptavidin-HRP (Jackson ImmunoResearch) was applied to wells at RT for 1 h incubation. After washing, the wells were developed with TMB substrate for 5-10 min at RT and the stopped with 1 N HCl. Thereafter absorbance was measured at 450 nm and 650 nm. The IC₅₀ values were calculated through GraphPad Prism7.

Assay [3] deals with T2, recombinant human CSF1R-Fc fusion …. Description: ELISA, coated human CSF1R-Fc (dimer). The procedure:
as §1

In assay [4] the target is T3, human CSF1R expressed on cells (293F/huCSF1R stable cells; AML5 cells; human monocytes and macrophages) (human, UniProt P07333 20-972). Put plainly: cell-based or functional assay.
In assay [5] the target is T1, recombinant human CSF1R-His (Biolegend). Description: BLI (Octet RED96), antibody captured on AHC biosensor, CSF1R-His in solution, 1:1 model. How it is done:
Kinetic rate constants, ka and kd, for binding of 6D4 and 6M6 to CSF1R were measured by Bio-Layer Interferometry (BLI) (ForteBio Octet RED96). The BLI assay was performed using AHC (Anti-hIgG Fc Capture) biosensors (ForteBio) to capture each anti-CSF1R antibody (2 μg/mL) to acquire a 0.5 nm shift and then the biosensors were dipped into varying concentrations (i.e. 0, 0.549, 1.65, 4.94, 14.8, 44.4, 133.3 and 400 nM) of recombinant CSF1R-His protein in running buffer containing PBS-Tween 20 (0.1%), BSA (0.1%). Rate constants were calculated by curve fitting analyses (1:1 Langmuir model) of binding response with a 5-minute association and 15-minute dissociation interaction time.
Background: BLI is a label-free optical method that tracks binding on a fibre tip over time.

Assay [6] has the same target. Put plainly: ELISA, coated human CSF1R-His (monomer). The procedure: (§2) Materials and methods: Recombinant human CSF1R-His (Biolegend), or CSF1R-Fc fusion protein, were immobilized on 96 well microtiter plate at a concentration of 1 μg/mL in Coating Solution (SeraCare) overnight at 4° C. The wells were washed with wash solution (0.05% Tween20 in imidazole-buffered saline) and blocked with 1% BSA. Serial dilutions of the antibodies were added to wells. After incubation at 3TC for 1 h, the wells were washed with wash solution. Peroxidase-conjugated goat anti-human kappa light chain antibody (Bethyl) was applied to each well at 3TC for 1 h incubation. After washing, the wells were developed with TMB substrate for 5-10 min at RT and then stopped with 1 N HCl. Thereafter absorbance was measured at 450 nm and 650 nm. The EC50 values were calculated through GraphPad Prism7.
The source holds these as a separate data set.

Assay [7] addresses T3, human CSF1R expressed on cells …. Put plainly: cell-based or functional assay. This is another data set of the same source.
Assay [8] addresses T2, recombinant human CSF1R-Fc fusion …. Description: ELISA, coated human CSF1R-Fc (dimer). How it is done: as §2
The source holds these as a separate data set.

For assay [9], the target named is T3, human CSF1R expressed on cells …. Description: cell-based or functional assay. The source holds these as a separate data set.
For assay [10] the target is unchanged. Put plainly: cell-based or functional assay. The source holds these as a separate data set.
In assay [11] the target is T4, cynomolgus CSF1R expressed on 293F cells (cynomolgus monkey, UniProt P07333 20-972 (human entry)).
T4 construct: also called cynoCSF1R
T4 chain: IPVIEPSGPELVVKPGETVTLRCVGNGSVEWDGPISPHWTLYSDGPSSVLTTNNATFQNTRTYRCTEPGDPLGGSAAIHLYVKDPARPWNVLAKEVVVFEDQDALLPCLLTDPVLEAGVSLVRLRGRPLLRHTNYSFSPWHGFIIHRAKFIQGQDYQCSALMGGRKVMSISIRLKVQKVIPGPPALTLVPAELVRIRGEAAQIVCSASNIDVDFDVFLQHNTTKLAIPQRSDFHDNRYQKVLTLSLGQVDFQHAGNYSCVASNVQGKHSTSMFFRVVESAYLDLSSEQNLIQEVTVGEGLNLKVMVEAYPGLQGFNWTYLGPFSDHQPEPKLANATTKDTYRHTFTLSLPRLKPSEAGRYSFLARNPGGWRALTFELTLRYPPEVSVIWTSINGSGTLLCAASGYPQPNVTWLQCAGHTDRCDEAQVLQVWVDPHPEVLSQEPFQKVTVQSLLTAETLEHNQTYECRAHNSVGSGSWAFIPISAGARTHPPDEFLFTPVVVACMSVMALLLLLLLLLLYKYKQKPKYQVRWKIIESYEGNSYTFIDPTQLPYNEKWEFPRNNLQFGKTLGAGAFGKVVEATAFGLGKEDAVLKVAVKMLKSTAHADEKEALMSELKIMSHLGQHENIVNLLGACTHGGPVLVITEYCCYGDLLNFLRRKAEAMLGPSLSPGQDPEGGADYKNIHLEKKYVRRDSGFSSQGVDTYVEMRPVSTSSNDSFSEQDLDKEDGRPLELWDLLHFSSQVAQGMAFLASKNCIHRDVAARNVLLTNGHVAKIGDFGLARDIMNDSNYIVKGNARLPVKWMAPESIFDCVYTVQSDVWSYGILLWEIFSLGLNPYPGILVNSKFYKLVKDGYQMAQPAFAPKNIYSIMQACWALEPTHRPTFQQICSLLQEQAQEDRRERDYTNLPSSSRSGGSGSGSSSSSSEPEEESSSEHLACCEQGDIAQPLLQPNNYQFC
Description: flow cytometry titration on 293F cells overexpressing cynomolgus CSF1R, anti-human IgG-Alexa Fluor 647. The source says: Materials and methods: The gene segments encoding full-length human CSF1R or cynomolgus CSF1R were obtained using Thermo gene synthesis service and cloned in a mammalian expression vector pCDNA3.4. […] After washing with FACS buffer (2%FBS in PBS), the cells were stained with anti-human IgG-Alexa Fluor 647 and analyzed by Attune N×T Flow Cytometer (Thermo Scientific).
For orientation: A flow cytometer gives signals particle by particle.

Assay [12] has as its target T2, recombinant human CSF1R-Fc fusion …. Description: ELISA, coated human CSF1R-Fc. How it is done: Materials and methods: Recombinant human CSF1R-Fc, or mouse CSF1R-Fc (Sino Biological) were immobilized on 96 well microtiter plate at a concentration of 1 μg/mL in Coating Solution (SeraCare) overnight at 4° C. The wells were washed with wash solution (0.05% Tween20 in imidazole-buffered saline) and blocked with 1% BSA. Serial dilutions of the anti-CSF1R/IL-10 fusion proteins were added to wells. After incubation at 3TC for 1 h, the wells were washed with wash solution. To detect chimeric Ab/IL10 fusions, peroxidase-conjugated goat anti-human kappa light chain antibody (Bethyl) was applied to each well at 3TC for 1 h incubation. To detect AB98 or AB98/1110 fusions, peroxidase-conjugated Goat anti-mouse IgG Fab antibody (Jackson immunoresearch) was applied to each well at 3TC for 1 h incubation. After washing, the wells were developed with TMB substrate for 5-10 min at RT and then stopped with 1 N HCl. Thereafter absorbance was measured at 450 nm and 650 nm.

Assay [13] addresses T3, human CSF1R expressed on cells …. Description: cell-based or functional assay. The source holds these as a separate data set.

T1 sequence (P07333 20-512 limits assumed): as the sequence (P07333 20-512 limits assumed) above

B1: hy6D4 (antibody, V domains shown)
VH: EIQLQQSGAELVKPRASVKISCEASGYSFTGYNMNWVKQSPGKSLEWIGDINPYYGATTYNQKFKGKATLTVDKSSSTAYMQLNSLTSEDSAVYYCARRGDYGDYEGWYFDVWGAGTTVTVSS
VL: DIQMNQSPSSLSASLGDTITITCHASQNINVWLSWYQQKPGNIPKLLIYKASNLHTGVPSRFSGSGSGTGFTLTISSLQPEDIATYYCQQGQSYPYTFGGGTKLEIK
notes: Mouse hybridoma antibody; also called anti-CSF1R antibody purified from hybridoma supernatant hy6D4
What is called EC50 is the concentration needed to bring the measured effect to its halfway point. Usually IC50 stands for the concentration at which inhibition is half-maximal. On to B1, for which the EC50 in assay [1] was 0.531 nM; in assay [3] it was 0.381 nM. Besides, the 50% inhibitory concentration (IC50) in assay [2] came to 1.76 nM.

B2: hy6M6 (antibody, V domains shown)
VH: DVQLQQSGTVLARPGASVKMSCKASGYTFTSYWIHWVKQRPGQGLEWIGAIYPGNRDTNYNQKFKGKAKLTTVTSASTAYMELSSLTNEDSAVYYCTGAFAGYYDWYFDVWGAGTTVTVSS
VL: DIVLTQSPASLAVSLGQRATISCKASQGVDYAGDSYMNWYQQKPGQPPKLLIYVASDLDSGIPARFSGSGSGTNFTLNIHPVEEEDAATYYCQQSYEDPRTFGGGTTLEIQ
notes: Mouse hybridoma antibody; also called anti-CSF1R antibody purified from hybridoma supernatant hy6M6
Turning to B2, the 50% effective concentration (EC50) in assay [1] came out at 0.112 nM; in assay [3], 0.0653 nM. In [2], the IC50 is 1.04 nM.

B3: chimeric anti-CSF1R antibody 6D4 (antibody, human IgG1, kappa)
heavy: not shown
light: DIQMNQSPSSLSASLGDTITITCHASQNINVWLSWYQQKPGNIPKLLIYKASNLHTGVPSRFSGSGSGTGFTLTISSLQPEDIATYYCQQGQSYPYTFGGGTKLEIKRTVAAPSVFIFPPSDEQLKSGTASVVCLLNNFYPREAKVQWKVDNALQSGNSQESVTEQDSKDSTYSLSSTLTLSKADYEKHKVYACEVTHQGLSSPVTKSFNRGEC
The term Kd denotes the free concentration of one partner at which half of the binding sites on the other are occupied at equilibrium, for simple one-to-one binding. In general, koff refers to the rate constant with which the complex falls apart. For orientation: kon means the rate constant with which the complex forms. Consider B3, for which the “IC50 (M), CSF1-dependent AML5 cell proliferation” value in assay [4] was found to be 4.62e-10 M. Moreover, in [5], the dissociation constant (Kd) was 3.42 nM, the dissociation rate constant (koff) amounted to 0.000946 s⁻¹ and the on-rate (kon) amounted to 277000 M⁻¹ s⁻¹. Further, in assay [6], the concentration giving a half-maximal response (EC50) is 0.531 nM. In assay [7], the “IC50 (M), CSF1-dependent survival of CD14+ monocytes” value was 5.58e-10 M and the “IC50 (M), CSF1-dependent survival of macrophages” value was determined as 1.38e-10 M. Also, the 50% effective concentration (EC50) in assay [8] was found to be 0.381 nM. In [9], the “IC50 (M), CSF1-dependent AML5 cell proliferation” value came to 4.62e-10 M and the “IC50 (M), IL-34-dependent AML5 cell proliferation” value stood at 3.49e-10 M.

B4: humanized anti-CSF1R antibody 6M6.hu12 (antibody, human IgG1, kappa)
heavy: not shown
light: DIVLTQSPDSLAVSLGERATINCKASQGVDYAGDSYMNWYQQKPGQPPKLLIYVASDLDSGIPDRFSGSGSGTDFTLTISSLQAEDVATYYCQQSYEDPRTFGGGTTLEIKRTVAAPSVFIFPPSDEQLKSGTASVVCLLNNFYPREAKVQWKVDNALQSGNSQESVTEQDSKDSTYSLSSTLTLSKADYEKHKVYACEVTHQGLSSPVTKSFNRGEC
notes: Humanized version of 6M6; also called 6M6.hul2
In the case of B4, the “IC50 (M), CSF1-dependent AML5 cell proliferation” value in [4] stood at 5.46e-10 M. Further, the values for the half-maximal effective concentration (EC50) in assay [6] and in assay [8] were 0.103 nM and 0.0613 nM, respectively.

B5: humanized anti-CSF1R/IL10 fusion protein 6M6.hu12/IL10 (antibody, human IgG1, kappa)
heavy: not shown
light: B4 light
notes: Antibody-cytokine fusion: human IL10 fused by a linker to the C-terminus of the heavy chain
On to B5, for which, in assay [10], the “IC50 (M), inhibition of AML5 cell proliferation (CSF1-dependent)” value turned out to be 1.61e-09 M. Besides, the binding result in [11] was “binds”. The 50% effective concentration (EC50) in assay [12] is 0.252 nM. Besides, the “IC50 (M), inhibition of macrophage survival (CSF1-dependent)” value in [13] was 1.49e-10 M.

B6: humanized anti-CSF1R antibody 6M6.hu41 (antibody, human IgG1, kappa)
heavy: not shown
light: B4 light with I62V
notes: Humanized version of 6M6
Consider B6, for which the “IC50 (M), CSF1-dependent AML5 cell proliferation” value in assay [4] stood at 4.3e-10 M. Also, the EC50 was found to be 0.107 nM in assay [6] and 0.065 nM in assay [8].

B7: humanized anti-CSF1R/IL10 fusion protein 6M6.hu41/IL10 (antibody, human IgG1, kappa)
heavy: not shown
light: B4 light with I62V
notes: Antibody-cytokine fusion: human IL10 fused by a linker to the C-terminus of the heavy chain; also called 6M6.hu41/1L10
As for B7, the “IC50 (M), inhibition of AML5 cell proliferation (CSF1-dependent)” value in [10] was found to be 8.93e-10 M. Also, in assay [11], the binding result was “binds”. For the same molecule, the EC50 in [12] was 0.205 nM. For the same molecule, in assay [13], the “IC50 (M), inhibition of macrophage survival (CSF1-dependent)” value was 1.84e-10 M.
